Literature values, collected in article PMC6963778.

Biological target: RNF4 (Homo sapiens) (UniProt P78317)

RNF4 (from UniProt P78317)
Kd: 180 nM
